Usually stoichiometry N stands for the number of molecules, sites or subunits per partner or assembly.

The labels stand for the following.
T1: CtaD with Strep-tag, subunit I homologue of complex IV (Corynebacterium glutamicum, UniProt Q79VD7 1-584)
T1 sequence (looked up): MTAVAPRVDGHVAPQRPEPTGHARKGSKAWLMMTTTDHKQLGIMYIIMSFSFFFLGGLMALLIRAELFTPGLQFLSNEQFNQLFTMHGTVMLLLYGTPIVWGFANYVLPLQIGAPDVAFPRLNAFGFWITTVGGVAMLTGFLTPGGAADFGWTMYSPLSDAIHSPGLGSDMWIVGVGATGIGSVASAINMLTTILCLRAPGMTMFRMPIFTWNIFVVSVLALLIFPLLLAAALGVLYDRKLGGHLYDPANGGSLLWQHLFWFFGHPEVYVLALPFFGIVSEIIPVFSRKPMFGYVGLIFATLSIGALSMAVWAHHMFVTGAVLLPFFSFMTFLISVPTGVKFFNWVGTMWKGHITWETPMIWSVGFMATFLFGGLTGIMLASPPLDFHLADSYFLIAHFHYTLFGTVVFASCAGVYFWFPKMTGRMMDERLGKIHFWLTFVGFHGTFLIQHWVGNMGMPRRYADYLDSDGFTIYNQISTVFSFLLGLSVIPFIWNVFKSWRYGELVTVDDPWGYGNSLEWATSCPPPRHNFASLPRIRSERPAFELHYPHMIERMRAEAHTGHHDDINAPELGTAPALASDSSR

B1: QcrB, cytochrome b subunit of complex III (natural protein, Corynebacterium glutamicum, UniProt Q79VE9 1-539, looked up)
chain: MSLATVGNNLDSRYTMASGIRRQINKVFPTHWSFMLGEIALYSFIVLLLTGVYLTLFFDPSITKVIYDGGYLPLNGVEMSRAYATALDISFEVRGGLFIRQMHHWAALLFVVSMLVHMLRIFFTGAFRRPREANWIIGVVLIILGMAEGFMGYSLPDDLLSGVGLRIMSAIIVGLPIIGTWMHWLIFGGDFPSDLMLDRFYIAHVLIIPAILLGLIAAHLALVWYQKHTQFPGAGRTENNVIGIRIMPLFAVKAVAFGLIVFGFLALLAGVTTINAIWNLGPYNPSQVSAGSQPDVYMLWTDGAARVMPAWELYLGNYTIPAVFWVAVMLGILVVLLVTYPFIERKFTGDDAHHNLLQRPRDVPVRTSLGVMALVFYILLTVSGGNDVYAMQFHVSLNAMTWIGRIGLIVGPAIAYFITYRLCIGLQRSDREVLEHGIETGIIKQMPNGAFIEVHQPLGPVDDHGHPIPLPYAGAAVPKQMNQLGYAEVETRGGFFGPDPEDIRAKAKEIEHANHIEEANTLRALNEANIERDKNEGKN
B2: Complex III (cyt. bc1 complex) protomer, QcrA-QcrB-QcrC (complex, Corynebacterium glutamicum)
chain 1: MSNNNDKQYTTQELNAMSNEDLARLGTELDDVTIAYRKERFPIANDPAEKRAARAVTFWLVLGIIGGLGFLATYIFWPWEYKAHGDEGLLAYTLYTPMLGITSGLCILSLGFAVVLYVKKFIPEEIAVQRRHDGPSEEVDRRTIVALLNDSWQTSTLGRRKLIMGLAGGGAVLAGLTIIAPMGGMIKNPWNPKEGPMDVQGDGTLWTSGWTLVENDVKVYLGRDTAAIAESHTDATGEHWSTTGVSRLVRMRPEDLAAASMETVFPLPAEMVNDGAEYDPAKDVYEHQMHSVHGPRNAVMLIRLRTADAEKVIEREGQESFHYGDYYAYSKICTHIGCPTSLYEAQTNRILCPCHQSQFDALHYGKPVFGPAARALPQLPITVDEEGYLIAAGNFIEPLGPAFWERKS
chain 2: B1 chain
chain 3: MAKPSAKKVKNRRKVRRTVAGALALTIGLSGAGILATAITPDAQVATAQRDDQALISEGKDLYDVACITCHGVNLQGVEDRGPSLVGVGEGAVYFQVHSGRMPILRNEAQAERKAPRYTEAQTLAIAAYVAANGGGPGLVYNEDGTLAMEELRGENYDGQITSADVARGGDLFRLNCASCHNFTGRGGALSSGKYAPNLDAANEQEIYQAMLTGPQNMPKFSDRQLSADEKKDIIAFIKSTKETPSPGGYSLGSLGPVAEGLFMWVFGILVLVAAAMWIGSRS
B3: AscA (P20, PRSAF1) (natural protein, Corynebacterium glutamicum, UniProt Q8NP09 1-147, looked up)
chain: MAGSSHTIEPEIYRGVSTLDEPSAAWGWHGLKRNTIQLAGWISVLFMLGYNFGNHKGHVETIWLLVITALLVIGLLIHLFEPKLSQVRTITSRNKPVGHVEPDWTYDQATLTGTWGNLTDSQLRSVNIEPSRVAHLRAADSAKELDN

Data set [1] addresses T1, CtaD with Strep-tag, subunit I …. The data set is described as follows: affinity purification with mass spectrometry.
Data set [2] concerns the molecule itself. Description: cryo-EM structure.
In data set [3] the target is T1, CtaD with Strep-tag, subunit I …. The data set is described as follows: cryo-EM structure.
Data set [4] deals with B1. The data set is described as follows: cryo-EM structure.

B1: the binding result in data set [1] is reported as “binds”. Take B2: the “stoichiometry N” value in data set [2] turned out to be 2. As to B3, the binding result in data set [3] and in data set [4] was “binds” in each case.

The record behind these values is article doi:10.1101/2021.06.16.448340 (bioRxiv, 2021).
